Data: patent US20210260163A1 (ASKGENE PHARMA, published 2021)

Assays:
[1] = biological target: T1, IL-2 ("IL-2 proteins" coated on the ELISA plate) (UniProt P60568 21-153, limits assumed); assay: ELISA, IL-2 coated, Fc-mask fusion titrated, pH 6.4
Description: (§1) 10 μg/ml of IL-2 proteins in PBS were seeded to the 96-well plate at 100 μl/well and coated at 4 degree for overnight. The wells were washed by PBS three times and blocked with 100 μl 2% milk/PBS for 1 hr. Then the wells were washed three times by PBS and 100 μl protein samples with 3-fold serial dilution were added to the wells for 1 hr incubation at room temperature. After three times of PBS washing, 100 μl of HRP conjugated anti-IgG antibody were added and incubated at RT for 1 hr. Subsequently, the wells were washed again by PBS for 3 times, detection reagents were added and OD450 nm were measured.
(§2) In order to discover improved versions of the IL-2 antagonist or mask with higher folds of activations upon protease cleavage, a number of mutations in the IL-2Rβ extracellular domain were constructed.

[2] = biological target: T1, IL-2 ("IL-2 proteins" coated on the …); assay: ELISA, IL-2 coated, Fc-mask fusion titrated, pH 7.4
Description: as §1, §2

[3] = biological target: T1, IL-2 ("IL-2 proteins" coated on the …); assay: ELISA, IL-2 coated, pH 6.4; reference understood as wild type (SEQ ID NO: 195)
Description: as §1, §2

[4] = biological target: T1, IL-2 ("IL-2 proteins" coated on the …); assay: ELISA, IL-2 coated, pH 7.4 and pH 6.4; reference understood as wild type (SEQ ID NO: 195)
Description: as §1, §2

[5] = biological target: T1, IL-2 ("IL-2 proteins" coated on the …); assay: ELISA, IL-2 coated, pH 7.4
Description: as §1, §2

[6] = biological target: T1, IL-2 ("IL-2 proteins" coated on the …); assay: ELISA, IL-2 coated, pH 6.4; reference wild type
Description: as §1, §2

T1 sequence (P60568 21-153 limits assumed): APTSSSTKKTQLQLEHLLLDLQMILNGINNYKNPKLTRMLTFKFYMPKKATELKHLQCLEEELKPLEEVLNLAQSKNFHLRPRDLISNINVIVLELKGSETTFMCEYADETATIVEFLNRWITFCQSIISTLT

| Binder | Kd [1] | Kd [2] | binding result [5] | also measured |
| --- | --- | --- | --- | --- |
| Fc with LALA and hole mutation (L234A-L235A-Y407T) with beta subunit (SEQ ID NO: 195), expressed as homodimer (Fc fusion, also called WT) DKTHTCPPCPAPEAAGGPSVFLFPPKPKDTLMISRTPEVTCVVVDVSHEDPEVKFNWYVDGVEVHNAKTKPREEQYNSTYRVVSVLTVLHQDWLNGKEYKCKVSNKALPAPIEKTISKAKGQPREPQVYTLPPSREEMTKNQVSLTCLVKGFYPSDIAVEWESNGQPENNYKTTPPVLDSDGSFFLTSKLTVDKSRWQQGNVFSCSVMHEALHNHYTQKSLSLSPGKGGGGSGGGGSGGGGSLSGRSDNHGGGGSAVNGTSQFTCFYNSRANISCVWSQDGALQDTSCQVHAWPDRRRWNQTCELLPVSQASWACNLILGAPDSQKLTTVDIVTLRVLCREGVRWRVMAIQDFKPFENLRLMAPISLQVVHVETHRCNISWEISQASHYFERHLEFEARTLSPGHTWEEAPLLTLKQKQEWICLETLTPDTQYEFQVRVKPLQGEFTTWSPWSQPLAFRTKPAALGKDT | 269 µg/mL | 219 µg/mL | – | – |
| Fc with LALA and hole mutation (L234A-L235A-Y407T) fused with beta subunit containing mutation (E136Q) (SEQ ID NO: 204), homodimer (Fc fusion) DKTHTCPPCPAPEAAGGPSVFLFPPKPKDTLMISRTPEVTCVVVDVSHEDPEVKFNWYVDGVEVHNAKTKPREEQYNSTYRVVSVLTVLHQDWLNGKEYKCKVSNKALPAPIEKTISKAKGQPREPQVYTLPPSREEMTKNQVSLTCLVKGFYPSDIAVEWESNGQPENNYKTTPPVLDSDGSFFLTSKLTVDKSRWQQGNVFSCSVMHEALHNHYTQKSLSLSPGKGGGGSGGGGSGGGGISSGLLSSGGSGGSLSGRSDNHGGGGSAVNGTSQFTCFYNSRANISCVWSQDGALQDTSCQVHAWPDRRRWNQTCELLPVSQASWACNLILGAPDSQKLTTVDIVTLRVLCREGVRWRVMAIQDFKPFENLRLMAPISLQVVHVETHRCNISWEISQASHYFQRHLEFEARTLSPGHTWEEAPLLTLKQKQEWICLETLTPDTQYEFQVRVKPLQGEFTTWSPWSQPLAFRTKPAALGKDT | 128 µg/mL | – | – | fold better binding affinity at pH 6.4 [3]: 2 fold |
| Fc with LALA and hole mutation (L234A-L235A-Y407T) fused with beta subunit containing mutation (D68E) (SEQ ID NO: 200), homodimer (Fc fusion) DKTHTCPPCPAPEAAGGPSVFLFPPKPKDTLMISRTPEVTCVVVDVSHEDPEVKFNWYVDGVEVHNAKTKPREEQYNSTYRVVSVLTVLHQDWLNGKEYKCKVSNKALPAPIEKTISKAKGQPREPQVYTLPPSREEMTKNQVSLTCLVKGFYPSDIAVEWESNGQPENNYKTTPPVLDSDGSFFLTSKLTVDKSRWQQGNVFSCSVMHEALHNHYTQKSLSLSPGKGGGGSGGGGSGGGGISSGLLSSGGSGGSLSGRSDNHGGGGSAVNGTSQFTCFYNSRANISCVWSQDGALQDTSCQVHAWPDRRRWNQTCELLPVSQASWACNLILGAPESQKLTTVDIVTLRVLCREGVRWRVMAIQDFKPFENLRLMAPISLQVVHVETHRCNISWEISQASHYFERHLEFEARTLSPGHTWEEAPLLTLKQKQEWICLETLTPDTQYEFQVRVKPLQGEFTTWSPWSQPLAFRTKPAALGKDT | 118 µg/mL | 124 µg/mL | – | fold increase of binding affinity at pH 7.4 and pH 6.4 [4]: 2 fold |
| Fc with LALA and hole mutation (L234A-L235A-Y407T) fused with beta subunit containing mutation (S69H) (SEQ ID NO: 201), homodimer (Fc fusion) DKTHTCPPCPAPEAAGGPSVFLFPPKPKDTLMISRTPEVTCVVVDVSHEDPEVKFNWYVDGVEVHNAKTKPREEQYNSTYRVVSVLTVLHQDWLNGKEYKCKVSNKALPAPIEKTISKAKGQPREPQVYTLPPSREEMTKNQVSLTCLVKGFYPSDIAVEWESNGQPENNYKTTPPVLDSDGSFFLTSKLTVDKSRWQQGNVFSCSVMHEALHNHYTQKSLSLSPGKGGGGSGGGGSGGGGISSGLLSSGGSGGSLSGRSDNHGGGGSAVNGTSQFTCFYNSRANISCVWSQDGALQDTSCQVHAWPDRRRWNQTCELLPVSQASWACNLILGAPDHQKLTTVDIVTLRVLCREGVRWRVMAIQDFKPFENLRLMAPISLQVVHVETHRCNISWEISQASHYFERHLEFEARTLSPGHTWEEAPLLTLKQKQEWICLETLTPDTQYEFQVRVKPLQGEFTTWSPWSQPLAFRTKPAALGKDT | 187 µg/mL | – | – | fold better binding affinity at pH 6.4 [3]: 2 fold |
| Fc with LALA and hole mutation (L234A-L235A-Y407T) fused with beta subunit containing mutation (V75F) (SEQ ID NO: 203), homodimer (Fc fusion) DKTHTCPPCPAPEAAGGPSVFLFPPKPKDTLMISRTPEVTCVVVDVSHEDPEVKFNWYVDGVEVHNAKTKPREEQYNSTYRVVSVLTVLHQDWLNGKEYKCKVSNKALPAPIEKTISKAKGQPREPQVYTLPPSREEMTKNQVSLTCLVKGFYPSDIAVEWESNGQPENNYKTTPPVLDSDGSFFLTSKLTVDKSRWQQGNVFSCSVMHEALHNHYTQKSLSLSPGKGGGGSGGGGSGGGGISSGLLSSGGSGGSLSGRSDNHGGGGSAVNGTSQFTCFYNSRANISCVWSQDGALQDTSCQVHAWPDRRRWNQTCELLPVSQASWACNLILGAPDSQKLTTFDIVTLRVLCREGVRWRVMAIQDFKPFENLRLMAPISLQVVHVETHRCNISWEISQASHYFERHLEFEARTLSPGHTWEEAPLLTLKQKQEWICLETLTPDTQYEFQVRVKPLQGEFTTWSPWSQPLAFRTKPAALGKDT | – | – | no binding | – |
| Fc-mask fusion with beta subunit containing mutation (E136Q/H138R) (SEQ ID NO: 205), homodimer (Fc fusion) DKTHTCPPCPAPEAAGGPSVFLFPPKPKDTLMISRTPEVTCVVVDVSHEDPEVKFNWYVDGVEVHNAKTKPREEQYNSTYRVVSVLTVLHQDWLNGKEYKCKVSNKALPAPIEKTISKAKGQPREPQVYTLPPSREEMTKNQVSLTCLVKGFYPSDIAVEWESNGQPENNYKTTPPVLDSDGSFFLTSKLTVDKSRWQQGNVFSCSVMHEALHNHYTQKSLSLSPGKGGGGSGGGGSGGGGISSGLLSSGGSGGSLSGRSDNHGGGGSAVNGTSQFTCFYNSRANISCVWSQDGALQDTSCQVHAWPDRRRWNQTCELLPVSQASWACNLILGAPDSQKLTTVDIVTLRVLCREGVRWRVMAIQDFKPFENLRLMAPISLQVVHVETHRCNISWEISQASHYFQRRLEFEARTLSPGHTWEEAPLLTLKQKQEWICLETLTPDTQYEFQVRVKPLQGEFTTWSPWSQPLAFRTKPAALGKDT | 105 µg/mL | 269 µg/mL | – | fold enhancement of binding affinity at pH 6.4 against wild type [6]: 2 fold |

Now from value to binder, other results behind:

| Kd [1] | Kd [2] | binding result [5] | Binder | also measured |
| --- | --- | --- | --- | --- |
| – | – | no binding | Fc with LALA and hole mutation (L234A-L235A-Y407T) fused with beta subunit containing mutation (V75Q) (SEQ ID NO: 202), homodimer (Fc fusion) DKTHTCPPCPAPEAAGGPSVFLFPPKPKDTLMISRTPEVTCVVVDVSHEDPEVKFNWYVDGVEVHNAKTKPREEQYNSTYRVVSVLTVLHQDWLNGKEYKCKVSNKALPAPIEKTISKAKGQPREPQVYTLPPSREEMTKNQVSLTCLVKGFYPSDIAVEWESNGQPENNYKTTPPVLDSDGSFFLTSKLTVDKSRWQQGNVFSCSVMHEALHNHYTQKSLSLSPGKGGGGSGGGGSGGGGISSGLLSSGGSGGSLSGRSDNHGGGGSAVNGTSQFTCFYNSRANISCVWSQDGALQDTSCQVHAWPDRRRWNQTCELLPVSQASWACNLILGAPDSQKLTTQDIVTLRVLCREGVRWRVMAIQDFKPFENLRLMAPISLQVVHVETHRCNISWEISQASHYFERHLEFEARTLSPGHTWEEAPLLTLKQKQEWICLETLTPDTQYEFQVRVKPLQGEFTTWSPWSQPLAFRTKPAALGKDT | – |
| – | – | no binding | Fc with LALA and hole mutation (L234A-L235A-Y407T) fused with beta subunit containing mutation R15Y (SEQ ID NO: 199), homodimer (Fc fusion) DKTHTCPPCPAPEAAGGPSVFLFPPKPKDTLMISRTPEVTCVVVDVSHEDPEVKFNWYVDGVEVHNAKTKPREEQYNSTYRVVSVLTVLHQDWLNGKEYKCKVSNKALPAPIEKTISKAKGQPREPQVYTLPPSREEMTKNQVSLTCLVKGFYPSDIAVEWESNGQPENNYKTTPPVLDSDGSFFLTSKLTVDKSRWQQGNVFSCSVMHEALHNHYTQKSLSLSPGKGGGGSGGGGSGGGGISSGLLSSGGSGGSLSGRSDNHGGGGSAVNGTSQFTCFYNSYANISCVWSQDGALQDTSCQVHAWPDRRRWNQTCELLPVSQASWACNLILGAPDSQKLTTVDIVTLRVLCREGVRWRVMAIQDFKPFENLRLMAPISLQVVHVETHRCNISWEISQASHYFERHLEFEARTLSPGHTWEEAPLLTLKQKQEWICLETLTPDTQYEFQVRVKPLQGEFTTWSPWSQPLAFRTKPAALGKDT | – |
